Test results taken from paper PMC2191783.

Molecular target: PU.1 (recombinant) (mouse, UniProt P17433 1-272)
Assay: EMSA

B1: c-fms -150 mutant M1 (MT-1) (dsDNA)
DNA 1: GCCCAAGTAGTAGTAAGAGTAAAACAAG
DNA 2: CTTGTTTTACTCTTACTACTACTTGGGC
Q: Does B1 bind?
A: no binding

B2: c-fms -150 PU-ets wild type (dsDNA)
DNA 1: GCCCAAGGAGGAGGAAGAGGAAAACAAG
DNA 2: CTTGTTTTCCTCTTCCTCCTCCTTGGGC
Q: Does B2 bind?
A: binds
